Laboratory results: patent US20230183352A1 (published 2023)

Key:
[1] = biological target: T1, Claudin 18.2 (CLDN18.2), expressed on CHOS-CLDN 18.2 / HEK293-CLDN 18.2 / HCC827-CLDN 18.2 cells (human, UniProt P56856-2 1-261); assay: FACS, CHOS-CLDN18.2 cells
T1 construct: whole, on cells; The species is not repeated for the CHOS-CLDN 18.2 cells; also called claudin-18A2

[2] = biological target: T1, Claudin 18.2 (CLDN18.2), expressed on …; assay: FACS, CHOS-CLDN18.2 cells, 5 µg/ml
[3] = biological target: T1, Claudin 18.2 (CLDN18.2), expressed on …; assay: FACS, CHOS-CLDN18.2 cells, 20 µg/ml
[4] = biological target: T1, Claudin 18.2 (CLDN18.2), expressed on …; assay: FACS, CHOS-CLDN18.2 cells, 10 µg/ml
[5] = biological target: T1, Claudin 18.2 (CLDN18.2), expressed on …; assay: FACS, CHOS-CLDN18.2 cells, 0.005 µg/ml
[6] = biological target: T1, Claudin 18.2 (CLDN18.2), expressed on …; assay: FACS, CHOS-CLDN18.2 cells, 0.020 µg/ml
[7] = biological target: T1, Claudin 18.2 (CLDN18.2), expressed on …; assay: FACS, CHOS-CLDN18.2 cells, 0.078 µg/ml
[8] = biological target: T1, Claudin 18.2 (CLDN18.2), expressed on …; assay: FACS, CHOS-CLDN18.2 cells, 0.313 µg/ml
[9] = biological target: T1, Claudin 18.2 (CLDN18.2), expressed on …; assay: FACS, CHOS-CLDN18.2 cells, 1.250 µg/ml
[10] = biological target: T1, Claudin 18.2 (CLDN18.2), expressed on …; assay: FACS, CHOS-CLDN18.2 cells, 0 µg/ml (background)
[11] = biological target: T1, Claudin 18.2 (CLDN18.2), expressed on …; assay: FACS, MFI on CHOS-CLDN18.2 over MFI on CHOS-CLDN18.1, 10 µg/ml
[12] = biological target: T1, Claudin 18.2 (CLDN18.2), expressed on …; assay: cell-based or functional assay
[13] = biological target: T2, PD-L1 Protein, Human, Recombinant (His Tag) (human, UniProt Q9NZQ7 19-239); assay: SPR Biacore T200, antibody captured, PD-L1 His as analyte, 1:1 binding
T2 construct: Bought protein; also called QPP09.1; SinoBiologic 10084-H08H
T2 sequence (Q9NZQ7 19-239 limits assumed): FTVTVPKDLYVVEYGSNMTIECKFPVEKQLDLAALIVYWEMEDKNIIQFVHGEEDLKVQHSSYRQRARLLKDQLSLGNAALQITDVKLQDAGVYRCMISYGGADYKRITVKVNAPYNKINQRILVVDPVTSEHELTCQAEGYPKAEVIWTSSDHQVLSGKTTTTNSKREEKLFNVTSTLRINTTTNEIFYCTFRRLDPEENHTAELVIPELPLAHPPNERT

[14] = biological target: T3, PD-L1 Protein, Cynomolgus, Recombinant (His Tag) (cynomolgus); assay: as above
T3 construct: Bought protein; also called QPP10.1; SinoBiologic 90251-C08H

| Binder | EC50 [1] [µg/mL] | max [1] | FACS reading [2] | FACS reading [3] | MFI [4] | FACS reading [5] | FACS reading [6] | FACS reading [7] | FACS reading [8] | FACS reading [9] | FACS reading [10] | CLDN18.2/CLDN18.1 (MFI ratio) [11] | Kd [13] [nM] | koff [13] [s⁻¹] | kon [13] [M⁻¹ s⁻¹] | Kd [14] [nM] | koff [14] [s⁻¹] | kon [14] [M⁻¹ s⁻¹] | also measured |
| --- | --- | --- | --- | --- | --- | --- | --- | --- | --- | --- | --- | --- | --- | --- | --- | --- | --- | --- | --- |
| QP14641461 (antibody, human IgG1, kappa, V domains shown, Humanized from QP207208) VH: EVQLVQSGAEVKKPGASVKVSCKASGYTFTSYIMHWVRQAPGQGLEWIGYINPYNDGTKYNEKFKGRVTLTRDKSTSTVYMELSSLRSEDTAVYYCARLGFTTRNAMDYWGQGTLVTVSS VL: DIVMTQSPDSLAVSLGERATINCKSSQSLLNSGNQKNYLAWYQQKPGQPPKLLIYGASTRESGVPDRFTGSGSGTDFTLTISSLQAEDVAVYYCQNDHSYPFTFGQGTKLEIKR | 0.165 | 166000 | 166000 | 99500 | 721000 | 5980 | 19900 | 46300 | 97500 | 160000 | 732 | 709 | – | – | – | – | – | – | – |
| QP325 (Fc fusion, Humanization design of QP1166; VHH-Fc; also called 1166-V3; QD325; not shown: human IgG1-FC constant region fused to the C terminal of the VHH) EVQLLESGGGLVQPGGSLRLSCAASGFTYGTYAMSWFRQAPGKGLEGVACIDIYGRTSYTDPVKGRFTISQDNSKNTLYLQMNSLRAEDTAVYYCAARDFGYCTASWVHEGFSRYWGQGTLVTVSS | – | – | – | – | – | – | – | – | – | – | – | – | 10.7 | 0.004 | 375000 | 19.6 | 0.00416 | 212000 | – |
| QP1166 (Fc fusion, Chimeric antibody before humanization; also called QD1166; nanobody QP1166; not shown: Fc part: called chimeric antibody, cloned in vector VH-FC-pQD) QVQLVESGGDSVQPGGSLRLSCAASGFTYGTYAMSWFRQAPGKEREGVACIDIYGRTSYTDPVKGRFTISQDNAKNTLYLQMNSLKPEDTAMYYCAARDFGYCTASWVHEGFSRYWGQGTQVTVSS | – | – | – | – | – | – | – | – | – | – | – | – | 2.63 | 0.00255 | 968000 | 5.6 | 0.00266 | 475000 | – |
| QP1162 (Fc fusion, Chimeric antibody before humanization; also called QD1162; nanobody QP1162; not shown: Fc part: called chimeric antibody, cloned in vector VH-FC-pQD) QVQLVESGGGSVQSGGSLRLSCAASGFTYGTYAMSWFRQAPGKEREGVACIDIYGRASYTDPVKGRFTISQDNAKNTLYLQMNSLKPEDTAMYYCAARDFGYCTASWVHEGFSRYWGQGTQVTVSS | – | – | – | – | – | – | – | – | – | – | – | – | 2.77 | 0.00379 | 1.37e+06 | 5.6 | 0.00401 | 715000 | – |

Second part, led by results:

| EC50 [1] [µg/mL] | max [1] | FACS reading [2] | FACS reading [3] | MFI [4] | FACS reading [5] | FACS reading [6] | FACS reading [7] | FACS reading [8] | FACS reading [9] | FACS reading [10] | CLDN18.2/CLDN18.1 (MFI ratio) [11] | Kd [13] [nM] | koff [13] [s⁻¹] | kon [13] [M⁻¹ s⁻¹] | Kd [14] [nM] | koff [14] [s⁻¹] | kon [14] [M⁻¹ s⁻¹] | Binder | also measured |
| --- | --- | --- | --- | --- | --- | --- | --- | --- | --- | --- | --- | --- | --- | --- | --- | --- | --- | --- | --- |
| 0.186 | 189000 | 189000 | 174000 | 595000 | 7190 | 19600 | 50300 | 134000 | 219000 | 732 | 596 | – | – | – | – | – | – | QP14651460 (antibody, human IgG1, kappa, V domains shown, Humanized from QP207208) VH: EVQLVQSGAEVKKPGASVKVSCKASGYTFTSYIMHWVRQAPGQGLEWIGYINPYNDGTKYNEKFKGRVTLTSDKSTSTVYMELSSLRSEDTAVYYCARLGFTTRNAMDYWGQGTLVTVSS VL: DIVMTQSPDSLAVSLGERATINCKSSQSLLNSGNQKNYLAWYQQKPGQPPKLLIYGASTRESGVPDRFSGSGSGTDFTLTISSLQAEDVAVYYCQNDHSYPFTFGQGTKLEIKR | – |
| 0.0936 | 191000 | 191000 | 114000 | 604000 | 6600 | 16200 | 44300 | 151000 | 146000 | 732 | 579 | – | – | – | – | – | – | QP14641460 (antibody, human IgG1, kappa, V domains shown, Humanized from QP207208) VH: EVQLVQSGAEVKKPGASVKVSCKASGYTFTSYIMHWVRQAPGQGLEWIGYINPYNDGTKYNEKFKGRVTLTRDKSTSTVYMELSSLRSEDTAVYYCARLGFTTRNAMDYWGQGTLVTVSS VL: DIVMTQSPDSLAVSLGERATINCKSSQSLLNSGNQKNYLAWYQQKPGQPPKLLIYGASTRESGVPDRFSGSGSGTDFTLTISSLQAEDVAVYYCQNDHSYPFTFGQGTKLEIKR | – |
| 0.156 | 227000 | 227000 | 131000 | 657000 | 7790 | 19300 | 51400 | 144000 | 201000 | 732 | 700 | – | – | – | – | – | – | QP14631461 (antibody, human IgG1, kappa, V domains shown, also called QP14611463) VH: QVQLVQSGAEVKKPGASVKVSCKASGYTFTSYIMHWVRQAPGQGLEWMGYINPYNDGTKYNEKFKGRVTMTRDTSTSTVYMELSSLRSEDTAVYYCARLGFTTRNAMDYWGQGTLVTVSS VL: DIVMTQSPDSLAVSLGERATINCKSSQSLLNSGNQKNYLAWYQQKPGQPPKLLIYGASTRESGVPDRFTGSGSGTDFTLTISSLQAEDVAVYYCQNDHSYPFTFGQGTKLEIKR | EC50 of killing, ADCC (PBMC, HEK293-CLDN18.2 cells) [12]: 0.0115 µg/mL; Killing percentage, ADCC (PBMC, HEK293-CLDN18.2 cells), 0 µg/ml [12]: 4.88%; Killing percentage, ADCC (PBMC, HEK293-CLDN18.2 cells), 0.0001024 µg/ml [12]: 4.3%; Killing percentage, ADCC (PBMC, HEK293-CLDN18.2 cells), 0.000512 µg/ml [12]: 5.65%; Killing percentage, ADCC (PBMC, HEK293-CLDN18.2 cells), 0.00256 µg/ml [12]: 10.2%; Killing percentage, ADCC (PBMC, HEK293-CLDN18.2 cells), 0.0128 µg/ml [12]: 23.4%; Killing percentage, ADCC (PBMC, HEK293-CLDN18.2 cells), 0.064 µg/ml [12]: 39.3%; Killing percentage, ADCC (PBMC, HEK293-CLDN18.2 cells), 0.32 µg/ml [12]: 43.8%; Killing percentage, ADCC (PBMC, HEK293-CLDN18.2 cells), 1.6 µg/ml [12]: 43.4%; Killing percentage, ADCC (PBMC, HEK293-CLDN18.2 cells), 8 µg/ml [12]: 46.3%; Killing percentage, ADCC (PBMC, HEK293-CLDN18.2 cells), 40 µg/ml [12]: 28.6% |
| 0.306 | 224000 | 224000 | 117000 | 758000 | 8450 | 15800 | 29300 | 93600 | 170000 | 732 | 718 | – | – | – | – | – | – | QP14641462 (antibody, human IgG1, kappa, V domains shown, Humanized from QP207208) VH: EVQLVQSGAEVKKPGASVKVSCKASGYTFTSYIMHWVRQAPGQGLEWIGYINPYNDGTKYNEKFKGRVTLTRDKSTSTVYMELSSLRSEDTAVYYCARLGFTTRNAMDYWGQGTLVTVSS VL: DIVMTQSPDSLAVSLGERATINCKSSQSLLNSGNQKNYLAWYQQKPGQPPKLLIYGASTRESGVPDRFTGSGSGTDFTLTISSVQAEDVAVYYCQNDHSYPFTFGQGTKLEIKR | – |
| 0.267 | 187000 | 187000 | 117000 | 627000 | 5090 | 11500 | 24700 | 90200 | 149000 | 732 | 476 | – | – | – | – | – | – | QP207208 (antibody, human IgG1, V domains shown, Chimeric; also called 51A3; mouse-derived chimeric antibody QP207208) VH: EVQLQQSGPELVKPGASVKMSCKASGYTFTSYIMHWVKQKPGQGLEWIGYINPYNDGTKYNEKFKGKATLTSDKSSSTVYMELSSLTSEDSAVYCCARLGFTTRNAMDYWGQGTSVTVSS VL: DIVMTQSPSSLSVSAGEKVTMNCKSSQSLLNSGNQKNYLAWYQQKPGQPPKLLIYGASTRESGVPDRFTGSGSGTDFTLTISSVQAEDLAVYYCQNDHSYPFTFGSGTKLEIK | – |
